Experimental data as given in patent US7276337B2, “Compositions and methods for visual ribonuclease detection assays” (Integrated DNA Technologies, Inc., priority 2000, dated 2007).

B1: RNase A: commercial enzyme reagent from Ambion, tested for RNase activity (protein, UniProt P61823 27-150, looked up)
Ribonuclease pancreatic: KETAAAKFERQHMDSSTSAASSSNYCNQMMKSRNLTKDRCKPVNTFVHESLADVQAVCSQKNVACKNGQTNCYQSYSTMSITDCRETGSSKYPNCAYKTTQANKHIIVACEGNPYVPVHFDASV
B2: Bam HI: commercial enzyme from New England Biolabs, sold as RNase-free (protein, UniProt P23940 1-213, looked up)
Type II restriction enzyme …: MEVEKEFITDEAKELLSKDKLIQQAYNEVKTSICSPIWPATSKTFTINNTEKNCNGVVPIKELCYTLLEDTYNWYREKPLDILKLEKKKGGPIDVYKEFIENSELKRVGMEFETGNISSAHRSMNKLLLGLKHGEIDLAIILMPIKQLAYYLTDRVTNFEELEPYFELTEGQPFIFIGFNAEAYNSNVPLIPKGSDGMSKRSIKKWKDKVENK
B3: RNase T1: commercial enzyme reagent from Ambion, tested for RNase activity (protein, UniProt P00651 27-130, looked up)
Guanyl-specific ribonuclease …: ACDYTCGSNCYSSSDVSTAQAAGYQLHEDGETVGSNSYPHKYNNYEGFDFSVSSPYYEWPILSSGDVYSGGSPGADRVVFNENNQLAGVITHTGASGNNFVECT
B4: RNase 1: commercial enzyme reagent from Ambion, tested for RNase activity (protein, UniProt P21338 24-268, looked up)
Ribonuclease I: LALQAKQYGDFDRYVLALSWQTGFCQSQHDRNRNERDECRLQTETTNKADFLTVHGLWPGLPKSVAARGVDERRWMRFGCATRPIPNLPEARASRMCSSPETGLSLETAAKLSEVMPGAGGRSCLERYEYAKHGACFGFDPDAYFGTMVRLNQEIKESEAGKFLADNYGKTVSRRDFDAAFAKSWGKENVKAVKLTCQGNPAYLTEIQISIKADAINAPLSANSFLPQPHPGNCGKTFVIDKAGY
B5: Proteinase K: commercial enzyme reagent from Ambion, sold as RNase-free (protein, UniProt P06873 106-384, looked up)
Proteinase K: AAQTNAPWGLARISSTSPGTSTYYYDESAGQGSCVYVIDTGIEASHPEFEGRAQMVKTYYYSSRDGNGHGTHCAGTVGSRTYGVAKKTQLFGVKVLDDNGSGQYSTIIAGMDFVASDKNNRNCPKGVVASLSLGGGYSSSVNSAAARLQSSGVMVAVAAGNNNADARNYSPASEPSVCTVGASDRYDRRSSFSNYGSVLDIFGPGTSILSTWIGGSTRSISGTSMATPHVAGLAAYLMTLGKTTAASACRYIADTANKGDLSNIPFGTVNLLAYNNYQA

System: Substrate oligonucleotide SEQ ID NO:30
Assay: RNase testing of commercially obtained reagents, visual detection
Assay type: biochemical
Parameters: key: +++ = maximum intensity; ++ = moderate intensity; + = faint but above background; − = negative (identical to background)
Conditions: reagent diluted 1:10 with Assay Buffer, 50 pmoles Substrate SEQ ID NO:30, 60 minutes at 37° C., UV
Procedure: Enzymes were obtained from New England Biolabs (NEB) or Ambion as indicated. Test sample (10 ul) was mixed with 1× buffer (90 ul) for a final volume of 100 ul with 50 pmoles of Substrate SEQ ID NO:30 in 0.5 ml RNase-free microtubes. Assay Mixes were incubated 60 minutes at 37° C. and visually examined under UV excitation for fluorescence emission. After scoring for results, 1 ul (1 ug) of RNase A was added to each tube. The Assay was incubated an additional 5 minutes at 37° C. and re-scored. The addition of RNase A represents a control for the absence of an Assay inhibitor and validates negative results. The “plus RNase A” control was omitted whenever the primary assay was already positive.
Table 9: RNase testing of commercially available reagents. A series of commercially available reagents were diluted 1:10 with Assay Buffer to a final volume of 100 ul. An RNase detection assay was performed using the method of the invention with Substrate oligonucleotide SEQ ID NO:30. Reactions were examined for fluorescence emission by visual inspection using an ultraviolet (UV) light source for excitation. Results were scored as +++, ++, +, or − based on relative signal intensity. As a control, RNase A (1 ug) was added to negative reactions and the Assay was re-scored. ND=not done.

Molecule	Assay Results (RNase activity in reagent, relative signal intensity)
B1	+++
B2	−
B3	+++
B4	+++
B5	−
